A word on the EC50: it is the concentration at which the effect is half-maximal. The Kd is the free concentration of one partner at which half of the binding sites on the other are occupied at equilibrium, for simple one-to-one binding. Broadly, the koff is a measure of how fast the partners let go of each other. The term kon denotes the rate constant with which the complex forms.

For experiment [1], the target named is T1, recombinant human BCMA-his fusion protein (ACRO Biosystem, Cat. No. BCA-H522y) (human, UniProt Q02223 1-54).
T1 construct: extracellular domain; Bought protein; also called huBCMA-his; hu BCMA-his; not shown: His tag
T1 sequence (looked up): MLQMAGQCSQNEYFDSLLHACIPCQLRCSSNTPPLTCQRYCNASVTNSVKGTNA
Kind of experiment: competitive ELISA, coated huBCMA-his, competitor 83A10-biotin, antibody at 7 µg/mL. Background: ELISA stands for enzyme-linked immunosorbent assay.

The target of experiment [2] is T2, recombinant cynomolgus monkey BCMA-mFc (cynomolgus monkey; mouse).
T2 construct: also called cynoBCMA-mFc
Briefly: indirect ELISA, coated antigen. As for the experimental part:
Procedures: Human, mouse and monkey BCMA antigens were prepared into 0.5 μg/mL coating solutions with PBS buffer. The coating solutions were added to a microplate at 100 μL/well and incubated at 4° C. overnight. The residual coating solution was discarded before 3% BSA was added at 300 μL/well, and the plate was blocked for 3 h at room temperature. The microplate was washed once with PB ST (PBS containing 0.1% of TWEEN 20) at 300 μL/well. The human-mouse chimeric monoclonal antibodies were serially 3-fold diluted from 10 μg/mL to the 9th concentration. The dilutions were added to the microplate at 100 μL/well. After a 1-h incubation at room temperature, the microplate was washed thrice with PB ST at 300 μL/well. The mouse anti-human IgG Fc antibody [HRP] mAb was 25,000-fold diluted with 1% BSA-PBST and added at 100 μL/well. After another 1-h incubation at room temperature, the microplate was washed thrice with PBST at 300 μL/well and dried. The TMB chromogenic solution was added at 100 μL/well. After a 5-min reaction at room temperature, 2 M H₂SO₄ was added at 100 μL/well to terminate the reaction. The microplate was placed on a microplate reader (Molecular Devices, SPECTRA Max plus 384) and the absorbance OD450 value was read at 450 nm wavelength.

The target of experiment [3] is T3, cynomolgus monkey BCMA on HEK293 cynoBCMA cells (cynomolgus monkey, UniProt A0A2K5UD97 1-183).
T3 construct: whole, on cells
Briefly: flow cytometry on HEK293 cynoBCMA cells. As for the experimental part:
Procedures: The cells were resuspended in PBS, and the cell density was adjusted to 2×10^5 cells/well. Human-mouse chimeric monoclonal antibodies were added to a 96-well plate at 50 μL/well and serially 3-fold diluted from 3000 nM to the 9th concentration. The plate was incubated for 1 h at 4° C. 150 μL of precooled PBS containing 1% of FBS was added into the 96-well plate after the co-incubation with the primary antibody was finished. The mixtures were centrifuged at 300×g for 5 min and the supernatants were discarded. The above procedures were repeated once. The fluorescent secondary antibody PE anti-human IgG Fc (Biolegend, 409304) was added at 80 μL/well. The plate was incubated at 4° C. for 30 min. 150 μL of precooled PBS containing 1% of FBS was added into the 96-well plate after the co-incubation with the secondary antibody was finished. The 96-well plate was centrifuged at 300×g for 5 min and the supernatants were discarded. The above procedures were repeated once. The cells were resuspended in 100 μL of PBS containing 1% of FBS and detected on a flow cytometry (BD Accuri™ C6).
In general terms: A flow cytometer gives signals particle by particle.

The target in experiment [4] is T4, recombinant cynomolgus monkey cynoBCMA-his (ACRO Biosystem, Cat. No. BCA-052H7) (cynomolgus monkey, UniProt A0A2K5UD97 1-53).
T4 construct: extracellular domain; Bought protein; also called cynomolgus/rhesus macaque BCMA/TNFRSF17 protein; not shown: His tag
Kind of experiment: SPR (Biacore T200), anti-His capture on CM5, 1:1 fit. For orientation: SPR reads the build-up and loss of mass on a sensor chip optically.

Experiment [5] addresses T1, recombinant human BCMA-his fusion …. Kind of experiment: competitive ELISA: huBCMA-his coated, varied antibody added first, then APRIL-biotin, streptavidin-peroxidase, OD450; blocked ligand APRIL. As for the experimental part:
The 96-well microplate was treated with 100 μL of 0.5 μg/mL huBCMA-his in PBS and incubated overnight at 4° C. The plate was then washed thrice with PBS washing buffer containing 0.1% of Tween-20 and blocked with 300 μL of PBS containing 1% of BSA for 2 h. 100 μL of each BCMA antibody was added to the plate. […] The plate was incubated at 37° C. for 1 h, and unbound secondary antibody was washed with PBS washing buffer containing 0.1% of Tween-20. The TMB chromogenic solution was added at 100 μL/well. After a 5-min reaction at room temperature, 2 M H₂SO₄ was added at 100 μL/well to terminate the reaction. The microplate was placed on a microplate reader (Molecular Devices, SPECTRA Max plus 384) and the absorbance OD450 value was read at 450 nm wavelength.

T4 sequence (A0A2K5UD97 entry or part of it): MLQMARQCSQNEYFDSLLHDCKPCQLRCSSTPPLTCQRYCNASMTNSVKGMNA
T2 sequence (chain, as listed by the source limits assumed): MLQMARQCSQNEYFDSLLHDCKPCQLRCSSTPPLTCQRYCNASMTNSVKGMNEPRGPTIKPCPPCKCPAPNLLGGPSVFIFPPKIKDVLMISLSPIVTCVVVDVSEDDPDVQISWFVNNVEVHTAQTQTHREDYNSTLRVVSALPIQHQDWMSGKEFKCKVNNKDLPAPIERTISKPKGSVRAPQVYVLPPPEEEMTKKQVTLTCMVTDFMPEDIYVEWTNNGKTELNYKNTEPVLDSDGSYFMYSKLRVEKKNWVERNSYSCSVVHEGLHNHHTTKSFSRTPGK
T3 sequence (A0A2K5UD97 entry or part of it): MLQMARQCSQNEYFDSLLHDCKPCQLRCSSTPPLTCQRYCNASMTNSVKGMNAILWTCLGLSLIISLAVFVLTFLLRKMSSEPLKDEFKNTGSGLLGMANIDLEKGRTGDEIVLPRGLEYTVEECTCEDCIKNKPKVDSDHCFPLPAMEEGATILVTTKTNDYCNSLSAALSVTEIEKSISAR

B1: human-mouse chimeric antibody c-mAb2 (antibody, human IgG1, V domains shown)
VH: QVQLQQSDAELVKPGTSVKISCKVSGYTFTDHTIHWMKQRPEQGLEWIGYIYPRNGNTKYNEKFKGKATLTADKSSSTAYMHLNSLTSEDSAVYFCARYDYDGYFDVWGTGTTVTVSS
VL: DVVMTQTPLSLPVSLGDQASISCRSSQSHVHSDGHTYLHWYLQKPGQSPELLIYKVSNRFSGVPDRFSGSGSGTDFTLKISRVEAEDLGVYFCSQNTHFPWTFGGGTKLEIK
notes: not shown: human IgG1 heavy chain constant region, GenBank No. AK303185.1; human kappa light chain constant region, GenBank No. MG815648.1
For B1, the competition in experiment [1] was found to be 40%.

B2: human-mouse chimeric antibody c-mAb3 (antibody, human IgG1, V domains shown)
VH: EVQLQQSGPELVKPGASVKILCKASGYTITDYNMDWVKRSHGKSLEWIGNINPHNGGSIYNQKFKGKATLTVDKSSSTAFMELRSLTSEDTAVYYCARGDATLVLDYWGQGTSLTVSS
VL: DIVLTQSPASLAVSLGQRATISCRASKSVSTSGLSYMHWYQQKPGQPPKVLIYLASNLESGVPARFSGSGSGTDFTLNIHPVEEEDAATYYCQHSRELPPTFGAGTKLELK
notes: as for B1
Consider B2, for which, in experiment [2], the concentration for a half-maximal effect (EC50) is 0.723 nM. Also, the EC50 in experiment [3] was 2.66 nM. Moreover, in experiment [4], the Kd is 0.106 nM, the koff worked out at 0.000373 s⁻¹ and the kon was 3.54e+06 M⁻¹ s⁻¹. For the same molecule, in experiment [5], the “IC50 (read off the curve)” value was around 0.4 µg/mL.

Values taken from patent US20240117061A1 (WUHAN YZY BIOPHARMA, published 2024).
